Assay [1] deals with T1, α5β1 integrin (fibronectin receptor) on cytokine-activated human umbilical vein endothelial (HUVE) cells (human, UniProt P08648 42-1049; P05556 21-798).
T1 construct: whole, on cells; also called FN receptor
The assay is described as follows: conclusion of the uptake inhibition experiments on IC-activated HUVE cells.

Assay [2] deals with T2, αvβ3 integrin (vitronectin receptor) on cytokine-activated human umbilical vein endothelial (HUVE) cells (human, UniProt P06756 31-1048; P05106 27-788).
T2 construct: whole, on cells; also called VN receptor
T2 sequence (P06756 31-1048, chain 1 of 2): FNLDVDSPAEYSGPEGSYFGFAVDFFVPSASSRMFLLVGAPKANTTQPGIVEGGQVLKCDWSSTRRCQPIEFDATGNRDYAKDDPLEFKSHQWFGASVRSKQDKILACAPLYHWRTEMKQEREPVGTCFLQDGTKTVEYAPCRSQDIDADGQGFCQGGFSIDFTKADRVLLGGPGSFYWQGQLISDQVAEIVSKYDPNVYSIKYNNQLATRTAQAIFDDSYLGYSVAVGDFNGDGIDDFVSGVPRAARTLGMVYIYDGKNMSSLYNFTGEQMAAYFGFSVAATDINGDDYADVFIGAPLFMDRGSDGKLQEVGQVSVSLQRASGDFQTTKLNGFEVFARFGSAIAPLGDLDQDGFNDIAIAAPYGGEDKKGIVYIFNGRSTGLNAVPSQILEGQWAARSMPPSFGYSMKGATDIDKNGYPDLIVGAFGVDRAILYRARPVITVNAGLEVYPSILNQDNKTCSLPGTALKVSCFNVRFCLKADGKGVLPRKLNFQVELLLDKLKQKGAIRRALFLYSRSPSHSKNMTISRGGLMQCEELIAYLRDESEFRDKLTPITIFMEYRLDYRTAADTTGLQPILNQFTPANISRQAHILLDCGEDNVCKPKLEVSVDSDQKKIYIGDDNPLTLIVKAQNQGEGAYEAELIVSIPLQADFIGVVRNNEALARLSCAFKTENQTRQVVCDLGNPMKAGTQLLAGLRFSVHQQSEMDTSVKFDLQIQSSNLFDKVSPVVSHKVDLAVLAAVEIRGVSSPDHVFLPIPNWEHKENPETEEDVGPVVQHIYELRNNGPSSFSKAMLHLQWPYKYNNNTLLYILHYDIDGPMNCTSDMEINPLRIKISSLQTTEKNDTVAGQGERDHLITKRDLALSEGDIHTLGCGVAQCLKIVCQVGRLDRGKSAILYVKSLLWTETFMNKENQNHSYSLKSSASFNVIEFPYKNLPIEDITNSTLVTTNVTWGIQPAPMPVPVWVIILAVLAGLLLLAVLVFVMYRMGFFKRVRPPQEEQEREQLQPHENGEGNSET
T2 sequence (P05106 27-788, chain 2 of 2): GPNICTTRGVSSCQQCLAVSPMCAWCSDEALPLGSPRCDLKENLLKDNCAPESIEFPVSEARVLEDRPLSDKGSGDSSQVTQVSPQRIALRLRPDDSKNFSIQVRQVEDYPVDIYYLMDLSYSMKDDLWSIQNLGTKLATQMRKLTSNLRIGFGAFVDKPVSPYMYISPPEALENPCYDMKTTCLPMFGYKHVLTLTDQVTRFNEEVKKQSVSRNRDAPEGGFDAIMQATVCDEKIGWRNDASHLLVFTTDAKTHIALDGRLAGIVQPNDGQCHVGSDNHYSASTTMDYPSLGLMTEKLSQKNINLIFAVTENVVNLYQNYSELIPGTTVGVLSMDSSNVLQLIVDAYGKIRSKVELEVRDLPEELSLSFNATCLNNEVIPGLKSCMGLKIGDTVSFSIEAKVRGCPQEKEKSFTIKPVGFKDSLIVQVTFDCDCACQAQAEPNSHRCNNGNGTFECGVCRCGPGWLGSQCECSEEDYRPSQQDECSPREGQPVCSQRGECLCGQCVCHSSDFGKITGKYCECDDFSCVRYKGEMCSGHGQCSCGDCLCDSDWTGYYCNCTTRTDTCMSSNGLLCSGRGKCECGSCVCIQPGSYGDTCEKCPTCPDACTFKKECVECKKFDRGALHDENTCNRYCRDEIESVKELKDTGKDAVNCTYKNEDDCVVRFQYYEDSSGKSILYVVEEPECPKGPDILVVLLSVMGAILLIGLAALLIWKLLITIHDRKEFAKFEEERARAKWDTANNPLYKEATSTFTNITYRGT
The assay is described as above.

T1 sequence (P08648 42-1049, chain 1 of 2): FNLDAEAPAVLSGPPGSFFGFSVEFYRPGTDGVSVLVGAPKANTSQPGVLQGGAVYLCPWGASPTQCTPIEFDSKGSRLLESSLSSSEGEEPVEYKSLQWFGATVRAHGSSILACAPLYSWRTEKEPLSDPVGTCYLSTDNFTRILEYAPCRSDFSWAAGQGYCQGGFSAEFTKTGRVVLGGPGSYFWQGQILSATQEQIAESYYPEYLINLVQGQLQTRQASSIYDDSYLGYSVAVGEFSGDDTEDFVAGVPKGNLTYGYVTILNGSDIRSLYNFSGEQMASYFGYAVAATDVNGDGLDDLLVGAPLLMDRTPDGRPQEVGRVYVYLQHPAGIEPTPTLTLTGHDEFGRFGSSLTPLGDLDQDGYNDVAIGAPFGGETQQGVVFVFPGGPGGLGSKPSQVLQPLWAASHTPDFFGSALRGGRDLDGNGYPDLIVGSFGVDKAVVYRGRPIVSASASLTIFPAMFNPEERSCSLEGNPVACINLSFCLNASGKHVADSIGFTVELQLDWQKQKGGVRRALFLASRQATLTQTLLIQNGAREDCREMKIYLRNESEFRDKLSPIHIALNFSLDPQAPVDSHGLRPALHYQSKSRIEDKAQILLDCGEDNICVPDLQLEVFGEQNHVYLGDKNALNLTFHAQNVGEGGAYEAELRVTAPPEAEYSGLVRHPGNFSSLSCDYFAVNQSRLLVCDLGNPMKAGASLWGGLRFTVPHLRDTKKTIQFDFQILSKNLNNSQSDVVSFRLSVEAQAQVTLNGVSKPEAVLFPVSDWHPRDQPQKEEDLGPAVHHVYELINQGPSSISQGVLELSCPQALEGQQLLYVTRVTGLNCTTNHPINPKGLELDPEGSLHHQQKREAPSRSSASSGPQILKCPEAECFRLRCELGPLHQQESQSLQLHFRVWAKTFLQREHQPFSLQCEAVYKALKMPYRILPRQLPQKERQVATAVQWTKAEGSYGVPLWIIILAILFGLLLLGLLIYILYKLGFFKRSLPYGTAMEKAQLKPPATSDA
T1 sequence (P05556 21-798, chain 2 of 2): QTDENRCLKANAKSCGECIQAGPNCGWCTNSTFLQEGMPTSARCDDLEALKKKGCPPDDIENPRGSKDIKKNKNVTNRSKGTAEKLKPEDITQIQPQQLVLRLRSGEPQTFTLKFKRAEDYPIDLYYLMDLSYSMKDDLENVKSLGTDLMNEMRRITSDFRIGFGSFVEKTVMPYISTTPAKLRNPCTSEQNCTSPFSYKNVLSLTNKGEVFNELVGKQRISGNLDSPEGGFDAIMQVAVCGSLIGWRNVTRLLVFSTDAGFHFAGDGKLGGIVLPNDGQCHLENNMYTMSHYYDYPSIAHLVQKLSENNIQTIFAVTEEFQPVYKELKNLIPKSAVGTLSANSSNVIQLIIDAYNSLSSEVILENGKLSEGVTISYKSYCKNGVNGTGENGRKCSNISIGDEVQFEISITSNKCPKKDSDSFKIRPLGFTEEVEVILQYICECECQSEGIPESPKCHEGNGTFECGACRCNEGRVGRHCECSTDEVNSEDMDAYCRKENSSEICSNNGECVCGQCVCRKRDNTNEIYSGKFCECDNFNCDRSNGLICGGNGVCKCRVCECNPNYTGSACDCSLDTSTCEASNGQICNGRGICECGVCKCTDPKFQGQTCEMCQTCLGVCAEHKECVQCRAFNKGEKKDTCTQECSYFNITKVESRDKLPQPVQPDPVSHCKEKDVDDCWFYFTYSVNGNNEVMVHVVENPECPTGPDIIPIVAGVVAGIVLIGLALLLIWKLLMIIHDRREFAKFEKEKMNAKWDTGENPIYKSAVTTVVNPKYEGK

B1: rhodaminated Tat protein (other)
chain: MEPVDPRLEPWKHPGSQPKTACTNCYCKKCCFHCQVCFITKALGISYGRKKRRQRRRPPQGSQTHQVSLSKQPTSQSRGDPTGPKE
modifications: rhodaminated (TRITC) at lysine residues
notes: Recombinant Tat labelled with TRITC; also called rhodaminated biologically-active Tat protein
For the molecule B1, the binding result in assay [1] and in assay [2] was “binds” throughout.

The record behind these values is patent publication US7744896 (ISTITUTO SUPERIORE DI SANITA, dated 2010).
